According to US20020106676A1 (MYRIAD GENETICS, published 2002):

Molecular target: T1, PN7740, amino acids 27-321 (prey of Example 34) (Saccharomyces cerevisiae; human, UniProt P04386 768-881)
T1 construct: also called novel protein PN7740
T1 sequence: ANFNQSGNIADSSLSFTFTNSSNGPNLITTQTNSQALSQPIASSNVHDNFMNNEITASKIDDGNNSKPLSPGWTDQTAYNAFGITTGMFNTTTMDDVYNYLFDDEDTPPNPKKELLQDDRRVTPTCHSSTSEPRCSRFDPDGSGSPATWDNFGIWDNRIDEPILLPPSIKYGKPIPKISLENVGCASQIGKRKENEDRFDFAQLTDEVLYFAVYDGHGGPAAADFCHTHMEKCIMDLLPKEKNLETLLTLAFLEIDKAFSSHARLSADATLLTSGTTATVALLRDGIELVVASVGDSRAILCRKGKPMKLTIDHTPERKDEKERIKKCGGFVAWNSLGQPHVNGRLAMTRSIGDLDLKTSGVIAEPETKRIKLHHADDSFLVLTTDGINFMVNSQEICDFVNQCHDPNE
Test: yeast two-hybrid search
Experimental: The resulting diploid yeast cells expressing proteins interacting with the bait protein were selected for the ability to synthesize tryptophan, leucine, histidine, and adenine. DNA was prepared from each clone, transformed by electroporation into E. coli strain KC8 (Clontech KC8 electrocompetent cells, Catalog No. C2023- 1), and the cells were selected on ampicillin-containing plates in the absence of either tryptophane (selection for the bait plasmid) or leucine (selection for the library plasmid). DNA for both plasmids was prepared and sequenced by the dideoxynucleotide chain termination method. […] Clones that gave a positive signal in the p-galactosidase assay were considered false-positives and discarded. Plasmids for the remaining clones were transformed into yeast cells together with the original bait plasmid. Clones that gave a positive signal in the p-galactosidase assay were considered true positives.

B1: PSD95, amino acids 149-255 (bait of Example 34) (other, UniProt P04386 1-147, looked up)
chain: MKLLSSIEQACDICRLKKLKCSKEKPKCAKCLKNNWECRYSPKTKRSPLTRAHLTEVESRLERLEQLFLLIFPREDLDMILKMDSLQDIKALLTGLFVQDNVNKDAVTDRLASVETDMPLTLRQHRISATSSSEESSNKGQRQLTVSMRRKPPAEKVMEIKLIKGPKGLGFSIAGGVGNQHIPGDNSIYVTKIIEGGAAHKDGRLQIGDKILAVNSVGLEDVMHEDAVAALKNTYDVVYLKVAKPSNAYLSDSY
notes: also called DLG4; SAP-90
binding result: binds
